Biological target: MurAA-His6 (wild-type), UDP-N-acetylglucosamine 1-carboxyvinyl transferase of Enterococcus faecalis (Enterococcus faecalis)
Test: thermal shift assay

Sequence of MurAA-His6 (wild-type), UDP-N-acetylglucosamine 1-carboxyvinyl transferase of Enterococcus faecalis (Enterococcus faecalis) (Q831A8 whole entry): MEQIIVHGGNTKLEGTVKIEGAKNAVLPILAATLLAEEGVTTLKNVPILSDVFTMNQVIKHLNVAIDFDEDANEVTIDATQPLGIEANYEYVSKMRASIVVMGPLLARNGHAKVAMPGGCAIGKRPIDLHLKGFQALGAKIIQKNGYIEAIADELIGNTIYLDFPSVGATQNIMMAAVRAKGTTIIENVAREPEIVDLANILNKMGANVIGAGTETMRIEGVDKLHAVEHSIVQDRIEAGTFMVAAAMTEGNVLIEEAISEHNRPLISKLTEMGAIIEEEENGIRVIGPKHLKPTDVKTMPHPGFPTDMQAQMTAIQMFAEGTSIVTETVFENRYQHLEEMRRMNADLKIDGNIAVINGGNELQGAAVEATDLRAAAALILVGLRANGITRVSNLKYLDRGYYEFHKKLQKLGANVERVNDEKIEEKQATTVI

B1: IreB (unphosphorylated), substrate of the PASTA kinase IreK of Enterococcus faecalis (natural protein)
chain: MGFTDETVRFDFDDNRKKAISETLETVYRALEEKGYNPINQIVGYLLSGDPAYIPRYQDARNLIRRHERDEIMEELTKYYLANHGIDIK
additional shift of the MurAA Tm with IreB: 16.5 °C

— article PMC10872757
